The values that follow come from IntAct's records for PubMed 29039417.

The labels stand for the following.
B1: BBSome complex member BBS4 (Homo sapiens), Q96RK4 (parent)
chain: MAEERVATRTQFPVSTESQKPRQKKAPEFPILEKQNWLIHLHYIRKDYEACKAVIKEQLQETQGLCEYAIYVQALIFRLEGNIQESLELFQTCAVLSPQSADNLKQVARSLFLLGKHKAAIEVYNEAAKLNQKDWEISHNLGVCYIYLKQFNKAQDQLHNALNLNRHDLTYIMLGKIHLLEGDLDKAIEVYKKAVEFSPENTELLTTLGLLYLQLGIYQKAFEHLGNALTYDPTNYKAILAAGSMMQTHGDFDVALTKYRVVACAVPESPPLWNNIGMCFFGKKKYVAAISCLKRANYLAPFDWKILYNLGLVHLTMQQYASAFHFLSAAINFQPKMGELYMLLAVALTNLEDIENAKRAYAEAVHLDKCNPLVNLNYAVLLYNQGEKKNALAQYQEMEKKVSLLKDNSSLEFDSEMVEMAQKLGAALQVGEALVWTKPVKDPKSKHQTTSTSKPASFQQPLGSNQALGQAMSSAAAYRTLPSGAGGTSQFTKPPSLPLEPEPAVESSPTETSEQIREK
partner: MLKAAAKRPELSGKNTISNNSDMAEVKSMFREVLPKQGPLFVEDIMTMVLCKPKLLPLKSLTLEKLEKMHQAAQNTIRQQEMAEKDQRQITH

This test covers variants of B1. As to conditions: with bbip1_human BBIP1, A8MTZ0.
As for MAEERVATRTQFPVSTESQKPRQKKAPEFPILEKQNWLIHLHYIRKDYEACKAVIKEQLQETQGLCEYAIYVQALIFRLEGNIQESLELFQTCAVLSPQSADNLKQVARSLFLLGKHKAAIEVYNEAAKLNQKDWEISHNLGVCYIYLKQFNKAQDQLHNALNLNRHDLTYIMLGKIHLLEGDLDKAIEVYKKAVEFSPENTELLTTLGLLYLQLGIYQKAFEHLGNALTYDPTNYKAILAAGSMMQTHGDFDVALTKYRVVACAVPESPPLWNNIGMCFFGKKKYVAAISCLKRANYLAPFDWKILYNLGLVHLTMQQYASAFHFLSAAINFQPKMGELYMLLAVALTNLEDIENAKRAYAEAVHLDKCNPLVNLNYAVLLYNQGEKKNALAQYQEMEKKVSLLKDNSSLEFDSEMVEMAQKLGAALQVGEALVWTKPVKDPKSKHQTTSTSKPAEFQQPLGSNQALGQAMSSAAAYRTLPSGAGGTSQFTKPPSLPLEPEPAVESSPTETSEQIREK [S457E], the “effect of a mutation on the interaction” value is “with no effect”.

MAEERVATRTQFPVSTESQKPRQKKAPEFPILEKQNWLIHLHYIRKDYEACKAVIKEQLQETQGLCEYAIYVQALIFRLEGNIQESLELFQTCAVLSPQSADNLKQVARSLFLLGKHKAAIEVYNEAAKLNQKDWEISHNLGVCYIYLKQFNKAQDQLHNALNLNRHDLTYIMLGKIHLLEGDLDKAIEVYKKAVEFSPENTELLTTLGLLYLQLGIYQKAFEHLGNALTYDPTNYKAILAAGSMMQTHGDFDVALTKYRVVACAVPESPPLWNNIGMCFFGKKKYVAAISCLKRANYLAPFDWKILYNLGLVHLTMQQYASAFHFLSAAINFQPKMGELYMLLAVALTNLEDIENAKRAYAEAVHLDKCNPLVNLNYAVLLYNQGEKKNALAQYQEMEKKVSLLKDNSSLEFDSEMVEMAQKLGAALQVGEALVWTKPVKDPKSKHQTTSTSKPAAFQQPLGSNQALGQAMSSAAAYRTLPSGAGGTSQFTKPPSLPLEPEPAVESSPTETSEQIREK [S457A]: the “effect of a mutation on the interaction” value was “with no effect”.

For MAEERVATRTQFPVSTESQKPRQKKAPEFPILEKQNWLIHLHYIRKDYEACKAVIKEQLQETQGLCEYAIYVQALIFRLEGNIQESLELFQTCAVLSPQSADNLKQVARSLFLLGKHKAAIEVYNEAAKLNQKDWEISHNLGVCYIYLKQFNKAQDQLHNALNLNRHDLTYIMLGKIHLLEGDLDKAIEVYKKAVEFSPENTELLTTLGLLYLQLGIYQKAFEHLGNALTYDPTNYKAILAAGSMMQTHGDFDVALTKYRVVACAVPESPPLWNNIGMCFFGKKKYVAAISCLKRANYLAPFDWKILYNLGLVHLTMQQYASAFHFLSAAINFQPKMGELYMLLAVALTNLEDIENAKRAYAEAVHLDKCNPLVNLNYAVLLYNQGEKKNALAQYQEMEKKVSLLKDNSSLEFDSEMVEMAQKLGAALQVGEALVWTKPVKDPKSKHQTTSTSKPAKFQQPLGSNQALGQAMSSAAAYRTLPSGAGGTSQFTKPPSLPLEPEPAVESSPTETSEQIREK [S457K], the “effect of a mutation on the interaction” value is “with no effect”.

As to MAEERVATRTQFPVSTESQKPRQKKAPEFPILEKQNWLIHLHYIRKDYEACKAVIKEQLQETQGLCEYAIYVQALIFRLEGNIQESLELFQTCAVLSPQSADNLKQVARSLFLLGKHKAAIEVYNEAAKLNQKDWEISHNLGVCYIYLKQFNKAQDQLHNALNLNRHDLTYIMLGKIHLLEGDLDKAIEVYKKAVEFSPENTELLTTLGLLYLQLGIYQKAFEHLGNALTYDPTNYKAILAAGSMMQTHGDFDVALTKYRVVACAVPESPPLWNNIGMCFFGKKKYVAAISCLKRANYLAPFDWKILYNLGLVHLTMQQYASAFHFLSAAINFQPKMGELYMLLAVALTNLEDIENAKRAYAEAVHLDKCNPLVNLNYAVLLYNQGEKKNALAQYQEMEKKVSLLKDNSSLEFDSEMVEMAQKLGAALQVGEALVWTKPVKDPKSKHQTTSTSKKASFQQPLGSNQALGQAMSSAAAYRTLPSGAGGTSQFTKPPSLPLEPEPAVESSPTETSEQIREK [P455K], the “effect of a mutation on the interaction” value is “with no effect”.

As for MAEERVATRTQFPVSTESQKPRQKKAPEFPILEKQNWLIHLHYIRKDYEACKAVIKEQLQETQGLCEYAIYVQALIFRLEGNIQESLELFQTCAVLSPQSADNLKQVARSLFLLGKHKAAIEVYNEAAKLNQKDWEISHNLGVCYIYLKQFNKAQDQLHNALNLNRHDLTYIMLGKIHLLEGDLDKAIEVYKKAVEFSPENTELLTTLGLLYLQLGIYQKAFEHLGNALTYDPTNYKAILAAGSMMQTHGDFDVALTKYRVVACAVPESPPLWNNIGMCFFGKKKYVAAISCLKRANYLAPFDWKILYNLGLVHLTMQQYASAFHFLSAAINFQPKMGELYMLLAVALTNLEDIENAKRAYAEAVHLDKCNPLVNLNYAVLLYNQGEKKNALAQYQEMEKKVSLLKDNSSLEFDSEMVEMAQKLGAALQVGEALVWTKPVKDPKSKHQTTSTSKPESFQQPLGSNQALGQAMSSAAAYRTLPSGAGGTSQFTKPPSLPLEPEPAVESSPTETSEQIREK [A456E], the “effect of a mutation on the interaction” value is listed as “with no effect”.

Turning to MAEERVATRTQFPVSTESQKPRQKKAPEFPILEKQNWLIHLHYIRKDYEACKAVIKEQLQETQGLCEYAIYVQALIFRLEGNIQESLELFQTCAVLSPQSADNLKQVARSLFLLGKHKAAIEVYNEAAKLNQKDWEISHNLGVCYIYLKQFNKAQDQLHNALNLNRHDLTYIMLGKIHLLEGDLDKAIEVYKKAVEFSPENTELLTTLGLLYLQLGIYQKAFEHLGNALTYDPTNYKAILAAGSMMQTHGDFDVALTKYRVVACAVPESPPLWNNIGMCFFGKKKYVAAISCLKRANYLAPFDWKILYNLGLVHLTMQQYASAFHFLSAAINFQPKMGELYMLLAVALTNLEDIENAKRAYAEAVHLDKCNPLVNLNYAVLLYNQGEKKNALAQYQEMEKKVSLLKDNSSLEFDSEMVEMAQKLGAALQVGEALVWTKPVKDPKSKHQTTSTSKPKSFQQPLGSNQALGQAMSSAAAYRTLPSGAGGTSQFTKPPSLPLEPEPAVESSPTETSEQIREK [A456K], the “effect of a mutation on the interaction” value is given as “with no effect”.
